# In US7598225B1 (priority 1995, dated 2009):
# Key:
# human HLA A2 molecules = human HLA A2 molecules (Homo sapiens, UniProt P04439, /I121R/I166T/I218V/L300P/L318F/N151K/N90K/P208A/P217A/Q86G/Q94H/R138H/R169H/T345S); format: binding
# [1] = system: PBMC from donors expressing the HLA A2 class 1 allele; format: cell-based, human
Substance,score in T2 cell binding assay (human HLA A2 molecules),T cell lines from PBMC of two prostate cancer patients [1]
"PSA 141-150: PSA peptide, amino acids 141-150, sequence F L T P K K L Q C V (Table 7) (FLTPKKLQCV)",positive,
"PSA 146-154: PSA peptide, amino acids 146-154, sequence K L Q C V D L H V (Table 7) (KLQCVDLHV)",positive,
"PSA 154-163: PSA peptide, amino acids 154-163, sequence V I S N D V C A Q V (Table 7) (VISNDVCAQV)",positive,established
